Key:
[1] = biological target: T1, LMP1 (EBV) peptide on HLA-B*57:01 (human); assay: cytokine release
T1 peptide: WTLLVDLLW

[2] = biological target: T2, LMP1 (EBV) peptide on HLA-B*57:01 (human); assay: cytokine release
T2 peptide: IALYLQQNWW

[3] = biological target: T3, LMP1 (EBV) peptide on HLA-B*57:01 (human); assay: cytokine release
T3 peptide: WWTLLVDLLW

[4] = biological target: T4, LMP1 (EBV) peptide on HLA-B*57:01 (human); assay: cytokine release
T4 peptide: IIALYLQQNW

[5] = biological target: T5, LMP1 (EBV) peptide on HLA-B*57:01 (human); assay: cytokine release
T5 peptide: WTLLVDLLWL

[6] = biological target: T6, LMP1 (EBV) peptide on HLA-B*57:01 (human); assay: cytokine release
T6 peptide: LAILIWMYY

[7] = biological target: T7, LMP1 (EBV) peptide on HLA-B*57:01 (human); assay: cytokine release
T7 peptide: LLFLAILIW

[8] = biological target: T8, LMP1 (EBV) peptide on HLA-B*57:01 (human); assay: cytokine release
T8 peptide: LLLFLAILIW

[9] = biological target: T9, LMP1 (EBV) peptide on HLA-B*57:01 (human); assay: cytokine release
T9 peptide: LAILIWMYYH

[10] = biological target: T10, LMP1 (EBV) peptide on HLA-B*57:01 (human); assay: cytokine release
T10 peptide: ALYLQQNWW

[11] = biological target: T11, LMP1 (EBV) peptide on HLA-B*57:01 (human); assay: cytokine release
T11 peptide: FLAILIWMYY

[12] = biological target: T12, LMP1 (EBV) peptide on HLA-B*57:01 (human); assay: cytokine release
T12 peptide: NSNEGRHHL

[13] = biological target: T13, LMP1 (EBV) peptide on HLA-B*57:01 (human); assay: half-maximum IFN-gamma release; peptide titration on K562-HLA-B*57:01, ELISA after 24 h, E:T 1:1; full-length, on cells
T13 peptide: IALYLQQNW

[14] = biological target: T14, EBNA3C (EBV) peptide on HLA-B*44:02 (human); assay: cytokine release
T14 peptide: SERLVPEESY

[15] = biological target: T15, EBNA3C (EBV) peptide on HLA-B*44:02 (human); assay: cytokine release
T15 peptide: WLLTSPSQSW

[16] = biological target: T16, EBNA3C (EBV) peptide on HLA-B*44:02 (human); assay: cytokine release
T16 peptide: LLTSPSQSW

[17] = biological target: T17, EBNA3C (EBV) peptide on HLA-B*44:02 (human); assay: half-maximum IFN-gamma release; peptide titration on K562-HLA-B*44:02, ELISA after 24 h, E:T 1:1; full-length, on cells
T17 peptide: AEGGVGWRHW

[18] = biological target: T18, EBNA3C (EBV) peptide on HLA-C*06:02 (human); assay: cytokine release
T18 peptide: RRYRRIYDL

[19] = biological target: T19, EBNA3C (EBV) peptide on HLA-C*06:02 (human); assay: cytokine release
T19 peptide: AREAEVRFL

[20] = biological target: T20, EBNA3C (EBV) peptide on HLA-C*06:02 (human); assay: cytokine release
T20 peptide: LRGKWQRRY

[21] = biological target: T21, EBNA3C (EBV) peptide on HLA-C*06:02 (human); assay: cytokine release
T21 peptide: ERYAREAEV

[22] = biological target: T22, EBNA3C (EBV) peptide on HLA-C*06:02 (human); assay: cytokine release
T22 peptide: SRRRRGACV

[23] = biological target: T23, EBNA3C (EBV) peptide on HLA-C*06:02 (human); assay: cytokine release
T23 peptide: NLLDFVRFM

[24] = biological target: T24, EBNA3C (EBV) peptide on HLA-C*06:02 (human); assay: cytokine release
T24 peptide: RRRRGACVV

[25] = biological target: T25, EBNA3C (EBV) peptide on HLA-C*06:02 (human); assay: cytokine release
T25 peptide: VRFLRGKWQ

[26] = biological target: T26, EBNA3C (EBV) peptide on HLA-C*06:02 (human); assay: cytokine release
T26 peptide: RRRGACVVY

[27] = biological target: T27, EBNA3C (EBV) peptide on HLA-C*06:02 (human); assay: cytokine release
T27 peptide: QRRYRRIYD

[28] = biological target: T28, EBNA3C (EBV) peptide on HLA-C*06:02 (human); assay: cytokine release
T28 peptide: VRFMGVMSS

[29] = biological target: T29, EBNA3C (EBV) peptide on HLA-C*06:02 (human); assay: cytokine release
T29 peptide: YAREAEVRFL

[30] = biological target: T30, EBNA3C (EBV) peptide on HLA-C*06:02 (human); assay: cytokine release
T30 peptide: NRVGADSIM

[31] = biological target: T31, EBNA3C (EBV) peptide on HLA-C*06:02 (human); assay: cytokine release
T31 peptide: LHHIWQNLL

[32] = biological target: T32, EBNA3C (EBV) peptide on HLA-C*06:02 (human); assay: cytokine release
T32 peptide: RRGIKEHVI

[33] = biological target: T33, EBNA3C (EBV) peptide on HLA-C*06:02 (human); assay: cytokine release
T33 peptide: YRRIYDLIE

[34] = biological target: T34, EBNA3C (EBV) peptide on HLA-C*06:02 (human); assay: cytokine release
T34 peptide: RRYRRIYDLI

[35] = biological target: T35, EBNA3C (EBV) peptide on HLA-C*06:02 (human); assay: cytokine release
T35 peptide: ARRGIKEHV

[36] = biological target: T36, EBNA3C (EBV) peptide on HLA-C*06:02 (human); assay: cytokine release
T36 peptide: QRRYRRIYDL

[37] = biological target: T37, EBNA3C (EBV) peptide on HLA-C*06:02 (human); assay: cytokine release
T37 peptide: WQRRYRRIY

[38] = biological target: T38, EBNA3C (EBV) peptide on HLA-C*06:02 (human); assay: cytokine release
T38 peptide: FLRGKWQRRY

[39] = biological target: T39, EBNA3C (EBV) peptide on HLA-C*06:02 (human); assay: cytokine release
T39 peptide: RRGACVVYD

[40] = biological target: T40, EBNA3C (EBV) peptide on HLA-C*06:02 (human); assay: cytokine release
T40 peptide: VYDDDVIEV

[41] = biological target: T41, EBNA3C (EBV) peptide on HLA-C*06:02 (human); assay: cytokine release
T41 peptide: YAREAEVRF

[42] = biological target: T42, EBNA3C (EBV) peptide on HLA-C*06:02 (human); assay: cytokine release
T42 peptide: GCQNAARTL

B1: TCR50 (TCR, V domains shown)
Valpha: AQSVTQLDSHVSVSEGTPVLLRCNYSSSYSPSLFWYVQHPNKGLQLLLKYTSAATLVKGINGFEAEFKKSETSFHLTKPSAHMSDAAEYFCVVMATGFQKLVFGTGTRLLVSP
Vbeta: DSGVTQTPKHLITATGQRVTLRCSPRSGDLSVYWYQQSLDQGLQFLIQYYNGEERAKGNILERFSAQQFPDLHSELNLSSLELGDSALYFCASSVTSGSDEQFFGPGTRLTVL
[1]
  binding result: no recognition
[2]
  binding result: recognises
[3]
  binding result: no recognition
[4]
  binding result: recognises
[5]
  binding result: no recognition
[6]
  binding result: no recognition
[7]
  binding result: no recognition
[8]
  binding result: no recognition
[9]
  binding result: no recognition
[10]
  binding result: recognises
[11]
  binding result: no recognition
[12]
  binding result: no recognition
[13]
  EC50 of peptide: 30 nM

B2: TCR25 (TCR, V domains shown)
Valpha: AQSVTQLDSHVSVSEGTPVLLRCNYSSSYSPSLFWYVQHPNKGLQLLLKYTSAATLVKGINGFEAEFKKSETSFHLTKPSAHMSDAAEYFCVAWDTGFQKLVFGTGTRLLVSP
Vbeta: EPEVTQTPSHQVTQMGQEVILRCVPISNHLYFYWYRQILGQKVEFLVSFYNNEISEKSEIFDDQFSVERPDGSNFTLKIRSTKLEDSAMYFCASKALADTQYFGPGTRLTVL
[14]
  binding result: no recognition
[15]
  binding result: no recognition
[16]
  binding result: no recognition
[17]
  EC50 of peptide: 600 nM

B3: TCR64 (TCR, V domains shown)
Valpha: TQLLEQSPQFLSIQEGENLTVYCNSSSVFSSLQWYRQEPGEGPVLLVTVVTGGEVKKLKRLTFQFGDARKDSSLHITAAQPGDTGLYLCAGDVDTGTASKLTFGTGTRLQVTL
Vbeta: DVKVTQSSRYLVKRTGEKVFLECVQDMDHENMFWYRQDPGLGLRLIYFSYDVKMKEKGDIPEGYSVSREKKERFSLILESASTNQTSMYLCASSLLGSGALYEQYFGPGTRLTVT
[18]
  binding result: no recognition
[19]
  binding result: no recognition
[20]
  binding result: no recognition
[21]
  binding result: no recognition
[22]
  binding result: no recognition
[23]
  binding result: no recognition
[24]
  binding result: no recognition
[25]
  binding result: no recognition
[26]
  binding result: no recognition
[27]
  binding result: no recognition
[28]
  binding result: no recognition
[29]
  binding result: no recognition
[30]
  binding result: no recognition
[31]
  binding result: no recognition
[32]
  binding result: no recognition
[33]
  binding result: no recognition
[34]
  binding result: no recognition
[35]
  binding result: no recognition
[36]
  binding result: no recognition
[37]
  binding result: no recognition
[38]
  binding result: no recognition
[39]
  binding result: no recognition
[40]
  binding result: no recognition
[41]
  binding result: no recognition
[42]
  binding result: no recognition
